Patent US20130196933A1

Assays:
[1] = biological target: T7-FoxM1B WT protein (CMV T7-FoxM1B; CMV WT FoxM1B 1-748) (human) (UniProt Q08050); assay: cell-based or functional assay
[2] = biological target: Cdk1 protein (human) (UniProt P06493); assay: cell-based or functional assay
Cdk1 protein (human), sequence (P06493 whole entry): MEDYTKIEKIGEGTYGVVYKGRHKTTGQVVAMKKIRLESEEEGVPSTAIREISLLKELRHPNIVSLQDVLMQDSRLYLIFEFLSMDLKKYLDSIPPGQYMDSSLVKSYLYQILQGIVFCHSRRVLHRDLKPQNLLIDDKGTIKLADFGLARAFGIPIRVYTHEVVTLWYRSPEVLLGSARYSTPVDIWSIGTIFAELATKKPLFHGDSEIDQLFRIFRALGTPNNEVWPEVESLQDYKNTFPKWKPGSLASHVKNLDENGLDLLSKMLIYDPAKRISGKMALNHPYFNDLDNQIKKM

FoxM1B transcriptional activity (6×FoxM1B TATA-luciferase reporter, U2OS cells) (% stimulation) [1]	FoxM1B transcriptional activity (6×FoxM1B TATA-luciferase reporter, U2OS cells) [2] [% reduction]	Substance
50		CBP protein (CREB Binding Protein, CMV-CBP) (enzyme)
	80	T7-FoxM1B L641A mutant protein (from UniProt Q08050 1-763)
